# Laboratory results reported in patent US20130089497A1 (Genentech, published 2013).
# T1: gD tagged human FcRH6 on SVT2 cells (human, UniProt Q6DN72 20-434)
# T1 construct: whole, on cells; also called huFcRH6; not shown: gD tag; the construct for this FcRH is not described
# T1 sequence (looked up): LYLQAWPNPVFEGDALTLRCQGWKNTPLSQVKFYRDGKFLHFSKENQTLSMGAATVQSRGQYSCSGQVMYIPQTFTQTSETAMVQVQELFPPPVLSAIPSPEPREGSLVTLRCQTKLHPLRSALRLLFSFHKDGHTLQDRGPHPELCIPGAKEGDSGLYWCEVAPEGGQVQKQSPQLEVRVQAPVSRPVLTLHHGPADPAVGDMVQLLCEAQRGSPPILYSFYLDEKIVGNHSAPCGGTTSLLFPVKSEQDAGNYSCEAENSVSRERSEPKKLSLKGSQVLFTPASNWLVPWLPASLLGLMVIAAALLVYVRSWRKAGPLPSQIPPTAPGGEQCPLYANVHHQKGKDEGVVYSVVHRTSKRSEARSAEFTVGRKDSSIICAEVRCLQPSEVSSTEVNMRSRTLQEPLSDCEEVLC
# T2: human FcRH5 on stably transfected cells (BJAB.huFcRH5, OPM2.huFcRH5) (human, UniProt Q96RD9 16-977)
# T2 construct: also called BJAB-FcRH5; OPM2-FcRH5
# T2 chain: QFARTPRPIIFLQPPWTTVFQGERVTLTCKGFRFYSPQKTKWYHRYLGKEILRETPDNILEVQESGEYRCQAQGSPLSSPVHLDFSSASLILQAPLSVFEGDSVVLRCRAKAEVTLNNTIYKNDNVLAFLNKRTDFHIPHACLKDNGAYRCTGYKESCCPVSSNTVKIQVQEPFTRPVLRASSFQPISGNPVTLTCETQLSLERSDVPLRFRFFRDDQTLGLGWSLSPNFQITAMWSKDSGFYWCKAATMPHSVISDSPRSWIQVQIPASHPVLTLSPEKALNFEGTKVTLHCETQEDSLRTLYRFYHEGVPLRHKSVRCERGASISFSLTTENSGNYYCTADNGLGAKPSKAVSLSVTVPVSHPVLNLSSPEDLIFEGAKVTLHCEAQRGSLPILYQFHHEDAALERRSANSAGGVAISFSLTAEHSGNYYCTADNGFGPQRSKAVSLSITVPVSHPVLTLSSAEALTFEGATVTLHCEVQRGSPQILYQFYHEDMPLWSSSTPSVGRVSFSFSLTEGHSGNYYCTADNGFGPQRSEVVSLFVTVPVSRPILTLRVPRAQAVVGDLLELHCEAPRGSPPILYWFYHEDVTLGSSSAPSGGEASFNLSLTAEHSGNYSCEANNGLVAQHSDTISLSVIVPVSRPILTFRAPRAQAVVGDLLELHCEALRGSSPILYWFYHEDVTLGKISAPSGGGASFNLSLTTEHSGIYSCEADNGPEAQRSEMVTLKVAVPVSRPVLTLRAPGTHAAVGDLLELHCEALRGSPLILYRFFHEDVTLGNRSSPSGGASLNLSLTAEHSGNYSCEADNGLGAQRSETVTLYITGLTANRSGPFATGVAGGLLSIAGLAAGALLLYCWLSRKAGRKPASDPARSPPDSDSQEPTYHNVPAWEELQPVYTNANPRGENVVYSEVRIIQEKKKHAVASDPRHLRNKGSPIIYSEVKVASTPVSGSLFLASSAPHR
# T3: gD tagged human FcRH4 on SVT2 cells (human, UniProt Q96PJ5 20-515)
# T3 construct: whole, on cells; also called huFcRH4; IRTA1; not shown: gD tag; the construct for this FcRH is not described
# T3 sequence (looked up): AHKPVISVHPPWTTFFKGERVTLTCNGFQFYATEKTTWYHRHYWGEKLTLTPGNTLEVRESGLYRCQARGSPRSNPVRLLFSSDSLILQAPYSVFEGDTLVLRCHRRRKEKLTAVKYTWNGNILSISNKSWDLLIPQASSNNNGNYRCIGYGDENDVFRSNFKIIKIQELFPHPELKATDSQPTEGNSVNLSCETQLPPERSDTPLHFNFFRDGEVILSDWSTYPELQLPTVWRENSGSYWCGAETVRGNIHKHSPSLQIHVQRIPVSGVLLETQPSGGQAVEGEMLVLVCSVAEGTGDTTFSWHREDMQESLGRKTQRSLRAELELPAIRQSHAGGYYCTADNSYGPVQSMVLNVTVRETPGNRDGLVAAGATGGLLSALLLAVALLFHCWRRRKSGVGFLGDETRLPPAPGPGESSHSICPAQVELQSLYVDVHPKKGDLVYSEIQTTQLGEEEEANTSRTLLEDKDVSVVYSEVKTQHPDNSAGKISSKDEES
# T4: gD tagged human FcRH3 on SVT2 cells (human, UniProt Q96P31 18-734)
# T4 construct: whole, on cells; also called huFcRH3; not shown: gD tag; the construct for this FcRH is not described
# T4 sequence (looked up): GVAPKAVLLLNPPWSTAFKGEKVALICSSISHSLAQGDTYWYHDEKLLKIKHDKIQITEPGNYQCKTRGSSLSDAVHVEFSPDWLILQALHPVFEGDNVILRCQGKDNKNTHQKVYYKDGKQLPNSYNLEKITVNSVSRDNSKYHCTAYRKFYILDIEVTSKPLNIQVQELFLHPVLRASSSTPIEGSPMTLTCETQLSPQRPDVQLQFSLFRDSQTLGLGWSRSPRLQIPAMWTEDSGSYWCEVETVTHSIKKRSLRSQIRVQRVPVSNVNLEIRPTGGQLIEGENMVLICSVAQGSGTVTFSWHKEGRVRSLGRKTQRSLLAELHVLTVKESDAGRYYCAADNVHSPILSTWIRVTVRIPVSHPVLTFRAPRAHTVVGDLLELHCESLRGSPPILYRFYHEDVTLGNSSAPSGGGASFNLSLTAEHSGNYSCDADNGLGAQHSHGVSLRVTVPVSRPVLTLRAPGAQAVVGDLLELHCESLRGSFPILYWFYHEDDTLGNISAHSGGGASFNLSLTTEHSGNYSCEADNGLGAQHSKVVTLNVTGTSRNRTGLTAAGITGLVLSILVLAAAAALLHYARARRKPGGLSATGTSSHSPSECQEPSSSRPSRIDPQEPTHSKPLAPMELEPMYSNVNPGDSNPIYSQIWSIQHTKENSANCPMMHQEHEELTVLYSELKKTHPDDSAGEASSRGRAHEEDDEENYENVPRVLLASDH
# B1: murine monoclonal antibody anti-FcRH5-13G9 (antibody, V domains shown)
# VH: EVQLVQSGPELKKPGETVKISCKASGYTFTNYGMNWVKQAPGKGLKWMGWVNTYTGEPTYTDDFKGRFAFSVETSASTVFLQINNLKNEDTATYFCARRSIPYYYAMDYWGQGTSLT
# VL: DIVMTQSQKIMSTSVGDRVNVTCKASQNVGSNVAWYHQKPGQSPKALIYSASYRYSGVPDRFTGSGSGTDFTLTISNVQSEDLAEYFCQQYKTWTFGGGTKLEIKR
# notes: Whole murine IgG from hybridoma; also called 13G9.1.1; mu13G9
# Tests used:
# [1] = target: T1, gD tagged human FcRH6 on SVT2 cells; experiment: FACS, SVT2.MSCV.gD.FcRH6 cells, PE secondary antibody
# [2] = target: T2, human FcRH5 on stably transfected cells …; experiment: Scatchard analysis: 0.5 nM 125I-labeled antibody competed with the unlabeled antibody (50 to 0.02 nM) on BJAB.huFcRH5 cells, 4 h at 4 C; St. Error 0.007
# [3] = target: T3, gD tagged human FcRH4 on SVT2 cells; experiment: FACS, SVT2.MSCV.gD.FcRH4 cells, PE secondary antibody
# [4] = target: T4, gD tagged human FcRH3 on SVT2 cells; experiment: FACS, SVT2.MSCV.gD.FcRH3 cells, PE secondary antibody
binder,measurement,setting,value
B1,binding result,[1],no binding (tested: 1.0 ug per about 10^6 cells (p-1120))
same,Kd,[2],0.13 nM
same,binding result,[3],no binding (tested: 1.0 ug per about 10^6 cells (p-1120))
same,binding result,[4],no binding (tested: 1.0 ug per about 10^6 cells (p-1120))
